The results in this text go back to article PMC2908316 (Journal of biomolecular screening, 2009).

Assay [1] deals with T1, RGS7 RH domain, GST-fusion protein, biotinylated (UniProt P49802 333-448, biotin on amines (Biotin-NHS, 3:1 biotin:RGS)).
T1 sequence (looked up): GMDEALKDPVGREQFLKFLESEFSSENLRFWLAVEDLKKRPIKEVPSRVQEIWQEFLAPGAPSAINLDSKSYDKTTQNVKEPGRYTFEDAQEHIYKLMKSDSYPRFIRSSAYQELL
As to the kind of experiment: flow cytometry protein interaction assay. (Flow cytometry measures light scatter and fluorescence of single cells or particles in a stream.)

In assay [2] the target is T2, full-length RGS8, GST-fusion protein, biotinylated (UniProt P49804 1-180, biotin on amines (Biotin-NHS, 3:1 biotin:RGS)).
T2 sequence (looked up): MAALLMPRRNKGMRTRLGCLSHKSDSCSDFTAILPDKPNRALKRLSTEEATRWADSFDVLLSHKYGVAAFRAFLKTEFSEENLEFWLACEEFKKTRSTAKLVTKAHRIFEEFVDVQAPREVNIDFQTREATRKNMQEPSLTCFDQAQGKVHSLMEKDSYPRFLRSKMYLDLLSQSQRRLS
As to the kind of experiment: flow cytometry protein interaction assay.

B1: Rat Gαo, N-terminal 6X-HIS tagged, labeled with AlexaFluor 532 (natural protein, UniProt P59215 1-354, looked up)
chain: MGCTLSAEERAALERSKAIEKNLKEDGISAAKDVKLLLLGAGESGKSTIVKQMKIIHEDGFSGEDVKQYKPVVYSNTIQSLAAIVRAMDTLGVEYGDKERKADSKMVCDVVSRMEDTEPFSAELLSAMMRLWGDSGIQECFNRSREYQLNDSAKYYLDSLDRIGAADYQPTEQDILRTRVKTTGIVETHFTFKNLHFRLFDVGGQRSERKKWIHCFEDVTAIIFCVALSGYDQVLHEDETTNRMHESLMLFDSICNNKFFIDTSIILFLNKKDLFGEKIKKSPLTICFPEYPGSNTYEDAAAYIQTQFESKNRSPNKEIYCHMTCATDTNNIQVVFDAVTDIIIANNLRGCGLY
modifications: AlexaFluor 532 carboxylic acid succinimidyl ester label, 3:1 fluorophore:protein ratio
Consider B1, for which the “bead-associated fluorescence, positive control mean (with AlF4-)” value in assay [1] came out at 948; in assay [2] it was 2060.
